# Measurements taken from patent US12295987B2, “Method of using a GIP/GLP1 co-agonist for diabetes” (Eli Lilly and Company, priority 2018, dated 2025).
# Target: T1, human gastric inhibitory peptide receptor (hGIPR) (Homo sapiens, UniProt P48546)
# T1 construct: expressed in transfected cells; host or cells: HEK293
# T1 sequence (P48546 22-466): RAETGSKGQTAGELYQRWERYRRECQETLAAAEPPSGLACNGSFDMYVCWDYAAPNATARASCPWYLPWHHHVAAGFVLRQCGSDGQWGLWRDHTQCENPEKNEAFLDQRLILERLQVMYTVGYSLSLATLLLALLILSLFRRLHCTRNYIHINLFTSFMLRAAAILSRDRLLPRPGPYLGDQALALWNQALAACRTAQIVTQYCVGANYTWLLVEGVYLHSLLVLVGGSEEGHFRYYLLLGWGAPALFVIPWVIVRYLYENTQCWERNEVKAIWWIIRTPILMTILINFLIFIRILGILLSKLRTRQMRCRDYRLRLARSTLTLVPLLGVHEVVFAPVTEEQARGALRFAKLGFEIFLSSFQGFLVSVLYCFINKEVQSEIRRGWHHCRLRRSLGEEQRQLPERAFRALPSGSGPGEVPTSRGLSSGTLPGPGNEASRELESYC
# Assay: cAMP pharmacological functional assay in presence of 0.1% casein, hGIPR
# Type: cell-based
# Settings: ratio of hGIPR to hGLP1R cAMP EC50 ratios
row,Substance,[hGIPR/hGLP1R] EC50 Ratio
1,"Y-Aib-EGT-αMeF-TSDYSI-αMeL-LDKK((2-[2-(2-Amino-ethoxy)-ethoxy]-acetyl)2-(γGlu)-CO—(CH2)18—CO2H)AQ-Aib-DFIEYLIEGGPSSGAPPPS-NH2 (YXEGTXTSDYSIXLDKKAQXDFIEYLIEGGPSSGAPPPS; Aib, αMeF, αMeL; acylated lysine C20 diacid; amide; (2)..(2) Xaa at position 2 is Aib; (6)..(6) Xaa at position 6 is alpha-methyl-Phe; (13)..(13) Xaa at position 13 is alpha-methyl-Leu; MOD_RES (17)..(17) Lys at position 17 is chemically modified by conjugation of the epsilon-amino group of the Lys side chain with (2-[2-(2-amino-ethoxy)-ethoxy]-acetyl)2-(gamma-Glu)-CO-(CH2)18- CO2H; (20)..(20) Xaa at position 20 is Aib; MOD_RES (39)..(39) Ser at po) [Peptide 140]",3.24
2,"Y-Aib-EGT-αMeF-TSDYSI-αMeL-LDKK((2-[2-(2-Amino-ethoxy)-ethoxy]-acetyl)2-(γGlu)-CO—(CH2)18—CO2H)AQ-Aib-EFI-(D-Glu)-YLIEGGPSSG-NH2 (YXEGTXTSDYSIXLDKKAQXEFIXYLIEGGPSSG; Aib, αMe, D-Glu, C20 diacid lipidation, C-amide; (2)..(2) Xaa at position 2 is Aib; (6)..(6) Xaa at position 6 is alpha-methyl-Phe; (13)..(13) Xaa at position 13 is alpha-methyl-Leu; MOD_RES (17)..(17) Lys at position 17 is chemically modified by conjugation of the epsilon-amino group of the Lys side chain with (2-[2-(2-amino-ethoxy)-ethoxy]-acetyl)2-(gamma-Glu)-CO-(CH2)18- CO2H; (20)..(20) Xaa at position 20 is Aib; (24)..(24) Xaa at position 2) [Peptide 228]",3.51
3,"Y-Aib-EGT-αMeF-TSDYSI-αMeL-LDKK((2-[2-(2-Amino-ethoxy)-ethoxy]-acetyl)2-(γGlu)-CO—(CH2)18—CO2H)AQ-Aib-EFIEYLIEGGPSSG-NH2 (YXEGTXTSDYSIXLDKKAQXEFIEYLIEGGPSSG; Aib, αMe residues, C20 diacid lipidation, C-amide; (2)..(2) Xaa at position 2 is Aib; (6)..(6) Xaa at position 6 is alpha-methyl-Phe; (13)..(13) Xaa at position 13 is alpha-methyl-Leu; MOD_RES (17)..(17) Lys at position 17 is chemically modified by conjugation of the epsilon-amino group of the Lys side chain with (2-[2-(2-amino-ethoxy)-ethoxy]-acetyl)2-(gamma-Glu)-CO-(CH2)18- CO2H; (20)..(20) Xaa at position 20 is Aib; MOD_RES (34)..(34) Gly at po) [Peptide 123]",2.56
4,"Y-Aib-EGT-αMeF-TSDYSI-αMeL-LDKK((2-[2-(2-Amino-ethoxy)-ethoxy]-acetyl)2-(γGlu)-CO—(CH2)18—CO2H)AQ-Aib-TFIEYLIEGGPSSGAPPPS-NH2 (YXEGTXTSDYSIXLDKKAQXTFIEYLIEGGPSSGAPPPS; Aib, αMeF, αMeL; acylated lysine C20 diacid; amide; (2)..(2) Xaa at position 2 is Aib; (6)..(6) Xaa at position 6 is alpha-methyl-Phe; (13)..(13) Xaa at position 13 is alpha-methyl-Leu; MOD_RES (17)..(17) Lys at position 17 is chemically modified by conjugation of the epsilon-amino group of the Lys side chain with (2-[2-(2-amino-ethoxy)-ethoxy]-acetyl)2-(gamma-Glu)-CO-(CH2)18- CO2H; (20)..(20) Xaa at position 20 is Aib; MOD_RES (39)..(39) Ser at po) [Peptide 139]",3.19
